Results on 2 molecules are retold here after article doi:10.1101/2025.08.30.673243.

Assay [1] addresses HeLa cohesin (unlabelled cohesin-STAG1) (human (endogenous in HeLa)) (UniProt Q14683). Description: single-molecule fluorescence imaging of DNA loop extrusion.
For assay [2] the target is unchanged. Described as above. The source holds these as a separate data set.

Sequence of UniProt Q14683 (Q14683 whole entry, chain 1 of 4): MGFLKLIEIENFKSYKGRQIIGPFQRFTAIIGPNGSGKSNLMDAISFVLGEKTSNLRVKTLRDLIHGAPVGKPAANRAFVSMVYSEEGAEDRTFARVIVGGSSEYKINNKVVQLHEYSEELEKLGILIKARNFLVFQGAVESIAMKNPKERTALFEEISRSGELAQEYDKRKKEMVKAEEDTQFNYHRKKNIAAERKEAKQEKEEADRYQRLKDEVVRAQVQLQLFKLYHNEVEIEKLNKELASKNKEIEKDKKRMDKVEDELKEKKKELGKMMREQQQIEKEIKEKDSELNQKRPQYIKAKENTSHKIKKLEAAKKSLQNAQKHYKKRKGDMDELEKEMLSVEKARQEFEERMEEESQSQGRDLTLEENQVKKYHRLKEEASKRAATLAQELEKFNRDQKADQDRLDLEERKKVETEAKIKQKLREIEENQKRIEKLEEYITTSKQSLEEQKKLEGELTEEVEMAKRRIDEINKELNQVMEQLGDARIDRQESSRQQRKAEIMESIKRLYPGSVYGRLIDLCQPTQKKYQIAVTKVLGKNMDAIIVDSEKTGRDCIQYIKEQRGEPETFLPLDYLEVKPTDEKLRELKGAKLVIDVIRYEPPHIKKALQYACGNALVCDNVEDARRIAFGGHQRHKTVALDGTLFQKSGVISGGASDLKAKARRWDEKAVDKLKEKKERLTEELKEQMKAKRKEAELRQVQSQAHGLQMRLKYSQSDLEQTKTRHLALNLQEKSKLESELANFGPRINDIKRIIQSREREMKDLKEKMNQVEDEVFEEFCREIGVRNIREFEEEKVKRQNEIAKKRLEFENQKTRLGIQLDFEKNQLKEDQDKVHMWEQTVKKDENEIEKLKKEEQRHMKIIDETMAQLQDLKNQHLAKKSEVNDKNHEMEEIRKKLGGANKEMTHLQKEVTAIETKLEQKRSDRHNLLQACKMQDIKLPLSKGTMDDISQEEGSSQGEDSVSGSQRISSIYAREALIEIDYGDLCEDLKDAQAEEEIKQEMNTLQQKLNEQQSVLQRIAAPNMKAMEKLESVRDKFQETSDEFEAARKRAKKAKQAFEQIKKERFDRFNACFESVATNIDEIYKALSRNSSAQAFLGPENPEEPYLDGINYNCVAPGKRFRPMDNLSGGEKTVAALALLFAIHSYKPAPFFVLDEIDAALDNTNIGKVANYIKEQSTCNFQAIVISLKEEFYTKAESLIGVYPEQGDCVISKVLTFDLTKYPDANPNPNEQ
Sequence of UniProt Q14683 (Q9UQE7 whole entry, chain 2 of 4, further chain): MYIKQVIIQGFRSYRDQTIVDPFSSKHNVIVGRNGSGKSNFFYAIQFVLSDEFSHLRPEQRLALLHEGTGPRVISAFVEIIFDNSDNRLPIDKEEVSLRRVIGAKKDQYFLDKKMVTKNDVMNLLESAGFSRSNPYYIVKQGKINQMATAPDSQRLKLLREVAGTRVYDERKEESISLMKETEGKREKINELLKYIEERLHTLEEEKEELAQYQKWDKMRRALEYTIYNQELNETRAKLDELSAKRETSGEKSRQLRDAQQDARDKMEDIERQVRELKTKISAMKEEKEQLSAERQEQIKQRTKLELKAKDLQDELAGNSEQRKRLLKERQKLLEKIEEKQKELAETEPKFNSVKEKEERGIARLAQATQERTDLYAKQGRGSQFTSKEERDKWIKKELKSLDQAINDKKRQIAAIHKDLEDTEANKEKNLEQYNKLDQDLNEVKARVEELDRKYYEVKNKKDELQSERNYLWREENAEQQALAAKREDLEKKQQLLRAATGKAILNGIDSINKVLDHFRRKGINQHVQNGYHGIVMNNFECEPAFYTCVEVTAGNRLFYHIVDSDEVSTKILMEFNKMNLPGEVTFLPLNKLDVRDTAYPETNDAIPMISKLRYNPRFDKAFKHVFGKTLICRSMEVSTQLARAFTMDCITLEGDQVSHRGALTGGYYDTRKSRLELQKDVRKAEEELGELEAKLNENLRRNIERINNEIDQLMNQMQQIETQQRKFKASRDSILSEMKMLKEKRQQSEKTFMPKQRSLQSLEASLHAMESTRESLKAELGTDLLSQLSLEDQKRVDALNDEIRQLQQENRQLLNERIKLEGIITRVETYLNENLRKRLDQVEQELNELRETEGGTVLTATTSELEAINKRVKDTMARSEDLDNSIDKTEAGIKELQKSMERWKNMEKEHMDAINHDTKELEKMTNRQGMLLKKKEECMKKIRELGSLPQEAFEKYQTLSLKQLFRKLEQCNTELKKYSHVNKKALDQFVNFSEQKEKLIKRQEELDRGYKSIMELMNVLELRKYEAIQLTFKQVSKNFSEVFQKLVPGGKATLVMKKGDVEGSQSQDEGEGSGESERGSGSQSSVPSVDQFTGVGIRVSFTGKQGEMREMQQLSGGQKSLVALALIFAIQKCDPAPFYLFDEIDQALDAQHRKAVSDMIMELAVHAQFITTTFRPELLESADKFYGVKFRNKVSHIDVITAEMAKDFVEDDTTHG
Sequence of UniProt Q14683 (O60216 whole entry, chain 3 of 4, further chain): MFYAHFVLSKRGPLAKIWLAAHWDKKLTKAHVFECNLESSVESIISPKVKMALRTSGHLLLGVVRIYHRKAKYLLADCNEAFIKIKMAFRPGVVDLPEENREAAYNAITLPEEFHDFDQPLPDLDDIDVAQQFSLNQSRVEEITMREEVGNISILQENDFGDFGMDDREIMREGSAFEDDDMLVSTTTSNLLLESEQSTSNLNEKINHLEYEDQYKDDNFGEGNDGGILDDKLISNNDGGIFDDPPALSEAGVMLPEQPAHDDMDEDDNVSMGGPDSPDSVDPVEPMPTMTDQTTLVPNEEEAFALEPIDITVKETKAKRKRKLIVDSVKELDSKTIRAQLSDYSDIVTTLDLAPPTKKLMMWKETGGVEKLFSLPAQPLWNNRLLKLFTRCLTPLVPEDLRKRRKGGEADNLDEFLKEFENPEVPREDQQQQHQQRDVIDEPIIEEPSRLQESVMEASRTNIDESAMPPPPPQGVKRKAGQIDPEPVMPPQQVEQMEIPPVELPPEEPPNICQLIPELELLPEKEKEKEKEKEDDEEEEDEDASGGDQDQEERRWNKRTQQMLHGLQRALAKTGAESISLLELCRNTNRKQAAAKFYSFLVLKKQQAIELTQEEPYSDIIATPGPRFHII
Sequence of UniProt Q14683 (Q8WVM7 whole entry, chain 4 of 4, further chain): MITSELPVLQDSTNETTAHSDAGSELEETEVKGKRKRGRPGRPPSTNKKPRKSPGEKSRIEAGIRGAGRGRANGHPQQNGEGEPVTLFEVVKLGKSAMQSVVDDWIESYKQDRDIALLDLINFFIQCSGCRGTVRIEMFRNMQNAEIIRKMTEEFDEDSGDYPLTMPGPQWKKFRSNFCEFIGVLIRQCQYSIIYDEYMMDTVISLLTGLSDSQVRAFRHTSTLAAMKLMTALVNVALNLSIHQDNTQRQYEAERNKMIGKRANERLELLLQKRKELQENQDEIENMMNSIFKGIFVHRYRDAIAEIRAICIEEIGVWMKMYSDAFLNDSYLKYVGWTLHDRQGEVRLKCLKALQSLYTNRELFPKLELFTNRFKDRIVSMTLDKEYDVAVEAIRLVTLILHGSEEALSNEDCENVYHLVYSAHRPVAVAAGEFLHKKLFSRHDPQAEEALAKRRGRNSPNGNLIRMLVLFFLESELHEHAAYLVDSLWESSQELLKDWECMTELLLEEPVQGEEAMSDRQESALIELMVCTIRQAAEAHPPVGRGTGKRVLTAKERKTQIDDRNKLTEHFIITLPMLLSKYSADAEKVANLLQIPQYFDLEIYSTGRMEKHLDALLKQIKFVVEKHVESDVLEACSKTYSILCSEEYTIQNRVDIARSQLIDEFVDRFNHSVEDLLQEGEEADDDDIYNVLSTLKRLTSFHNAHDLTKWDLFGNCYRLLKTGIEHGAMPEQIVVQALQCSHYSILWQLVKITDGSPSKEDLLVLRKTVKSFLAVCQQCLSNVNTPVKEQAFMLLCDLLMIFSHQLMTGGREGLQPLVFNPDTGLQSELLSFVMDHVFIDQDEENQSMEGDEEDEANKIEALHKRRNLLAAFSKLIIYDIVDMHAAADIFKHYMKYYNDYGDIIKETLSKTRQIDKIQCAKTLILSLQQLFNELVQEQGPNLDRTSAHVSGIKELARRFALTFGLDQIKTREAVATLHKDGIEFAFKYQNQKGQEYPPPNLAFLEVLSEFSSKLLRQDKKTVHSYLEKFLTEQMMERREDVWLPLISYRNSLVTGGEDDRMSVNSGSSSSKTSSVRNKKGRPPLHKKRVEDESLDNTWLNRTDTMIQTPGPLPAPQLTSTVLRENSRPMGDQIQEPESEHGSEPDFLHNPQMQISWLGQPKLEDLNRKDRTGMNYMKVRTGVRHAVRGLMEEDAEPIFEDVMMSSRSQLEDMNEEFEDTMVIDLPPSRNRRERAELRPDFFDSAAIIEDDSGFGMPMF

In assay [1], “NIPBL-ΔN labelled with ATTO550 (BB241) (domain or fragment)” gave a median residence time of NIPBL on loops, no PDS5B added of 50 s and a residence time of NIPBL on loops on which NIPBL was exchanged with PDS5B of 38 s.

B1: PDS5B labelled with JF646 (natural protein)
chain: MAHSKTRTNDGKITYPPGVKEISDKISKEEMVRRLKMVVKTFMDMDQDSEEEKELYLNLALHLASDFFLKHPDKDVRLLVACCLADIFRIYAPEAPYTSPDKLKDIFMFITRQLKGLEDTKSPQFNRYFYLLENIAWVKSYNICFELEDSNEIFTQLYRTLFSVINNGHNQKVHMHMVDLMSSIICEGDTVSQELLDTVLVNLVPAHKNLNKQAYDLAKALLKRTAQAIEPYITNFFNQVLMLGKTSISDLSEHVFDLILELYNIDSHLLLSVLPQLEFKLKSNDNEERLQVVKLLAKMFGAKDSELASQNKPLWQCYLGRFNDIHVPIRLECVKFASHCLMNHPDLAKDLTEYLKVRSHDPEEAIRHDVIVSIVTAAKKDILLVNDHLLNFVRERTLDKRWRVRKEAMMGLAQIYKKYALQSAAGKDAAKQIAWIKDKLLHIYYQNSIDDRLLVERIFAQYMVPHNLETTERMKCLYYLYATLDLNAVKALNEMWKCQNLLRHQVKDLLDLIKQPKTDASVKAIFSKVMVITRNLPDPGKAQDFMKKFTQVLEDDEKIRKQLEVLVSPTCSCKQAEGCVREITKKLGNPKQPTNPFLEMIKFLLERIAPVHIDTESISALIKQVNKSIDGTADDEDEGVPTDQAIRAGLELLKVLSFTHPISFHSAETFESLLACLKMDDEKVAEAALQIFKNTGSKIEEDFPHIRSALLPVLHHKSKKGPPRQAKYAIHCIHAIFSSKETQFAQIFEPLHKSLDPSNLEHLITPLVTIGHIALLAPDQFAAPLKSLVATFIVKDLLMNDRLPGKKTTKLWVPDEEVSPETMVKIQAIKMMVRWLLGMKNNHSKSGTSTLRLLTTILHSDGDLTEQGKISKPDMSRLRLAAGSAIVKLAQEPCYHEIITLEQYQLCALAINDECYQVRQVFAQKLHKGLSRLRLPLEYMAICALCAKDPVKERRAHARQCLVKNINVRREYLKQHAAVSEKLLSLLPEYVVPYTIHLLAHDPDYVKVQDIEQLKDVKECLWFVLEILMAKNENNSHAFIRKMVENIKQTKDAQGPDDAKMNEKLYTVCDVAMNIIMSKSTTYSLESPKDPVLPARFFTQPDKNFSNTKNYLPPEMKSFFTPGKPKTTNVLGAVNKPLSSAGKQSQTKSSRMETVSNASSSSNPSSPGRIKGRLDSSEMDHSENEDYTMSSPLPGKKSDKRDDSDLVRSELEKPRGRKKTPVTEQEEKLGMDDLTKLVQEQKPKGSQRSRKRGHTASESDEQQWPEEKRLKEDILENEDEQNSPPKKGKRGRPPKPLGGGTPKEEPTMKTSKKGSKKKSGPPAPEEEEEEERQSGNTEQKSKSKQHRVSRRAQQRAESPESSAIESTQSTPQKGRGRPSKTPSPSQPKKNVRVGRSKQAATKENDSSEEVDVFQGSSPVDDIPQEETEEEEVSTVNVRRRSAKRERR
modifications: JF646-HaloTag ligand on the HaloTag
Consider B1, for which the median time for which NIPBL and PDS5B were both on the loop during exchange in assay [2] came to 3 s.
